According to the supplement of paper PMC11246515:
± gives the standard deviation of the averaged measurements.

Test: total protein half-life in vivo (active degradation + dilution); higher = more stable protein
[1] = E. coli NCM3722 delta-clpP, growth: N-lim chemostat, doubling time 6 h
[2] = E. coli NCM3722 delta-hslV, growth: N-lim chemostat, doubling time 6 h
[3] = E. coli NCM3722 delta-lon, growth: N-lim chemostat, doubling time 6 h
[4] = E. coli NCM3722 delta-smpB, growth: N-lim chemostat, doubling time 6 h
[5] = wild type E. coli NCM3722, growth: C-lim chemostat, doubling time 3 h
[6] = wild type E. coli NCM3722, growth: C-lim chemostat, doubling time 6 h
[7] = wild type E. coli NCM3722, growth: C-lim chemostat, doubling time 12 h
[8] = wild type E. coli NCM3722, growth: N-lim chemostat, doubling time 6 h
[9] = wild type E. coli NCM3722, growth: N-lim chemostat, doubling time 12 h
[10] = wild type E. coli NCM3722, growth: P-lim chemostat, doubling time 6 h
[11] = wild type E. coli NCM3722, growth: P-lim chemostat, doubling time 12 h
[12] = E. coli NCM3722 delta-clpP delta-lon delta-hslV, growth: N-lim chemostat, doubling time 6 h

Sequence	total protein half-life in vivo [1] [h]	total protein half-life in vivo [2] [h]	total protein half-life in vivo [3] [h]	total protein half-life in vivo [4] [h]	total protein half-life in vivo [5] [h]	total protein half-life in vivo [6] [h]	total protein half-life in vivo [7] [h]	total protein half-life in vivo [8] [h]	total protein half-life in vivo [9] [h]	total protein half-life in vivo [10] [h]	total protein half-life in vivo [11] [h]	total protein half-life in vivo [12] [h]
MRQTKTGILLANLGTPDAPTPEAVKRYLKQFLSDRRVVDTSRLLWWPLLRGVILPLRSPRVAKLYASVWMEGGSPLMVYSRQQQQALAQRLPEMPVALGMSYGSPSLESAVDELLAEHVDHIVVLPLYPQFSCSTVGAVWDELARILARKRSIPGISFIRDYADNHDYINALANSVRASFAKHGEPDLLLLSYHGIPQRYADEGDDYPQRCRTTTRELASALGMAPEKVMMTFQSRFGREPWLMPYTDETLKMLGEKGVGHIQVMCPGFAADCLETLEEIAEQNREVFLGAGGKKYEYIPALNATPEHIEMMANLVAAYR	6.11 ± 0.13	6.43 ± 0.78	5.98 ± 0.68	5.63 ± 0.32	2.96 ± 0.033	6.24 ± 0.92	10.5 ± 2.5	5.33 ± 0.98	12.1 ± 0.19	5.73 ± 0.36	12.2 ± 1.5	–
MRRFFWLVAAALLLAGCAGEKGIVEKEGYQLDTRRQAQAAYPRIKVLVIHYTADDFDSSLATLTDKQVSSHYLVPAVPPRYNGKPRIWQLVPEQELAWHAGISAWRGATRLNDTSIGIELENRGWQKSAGVKYFAPFEPAQIQALIPLAKDIIARYHIKPENVVAHADIAPQRKDDPGPLFPWQQLAQQGIGAWPDAQRVNFYLAGRAPHTPVDTASLLELLARYGYDVKPDMTPREQRRVIMAFQMHFRPTLYNGEADAETQAIAEALLEKYGQD	6.3559 ± 0.0044	6.75 ± 0.56	7.41 ± 0.34	5.75 ± 0.39	3.0599 ± 3.5e-05	–	11.2 ± 0.38	–	12.4 ± 0.43	5.63 ± 1.1	13.9 ± 1.3	6.4 ± 0.46
MRRFLTTLMILLVVLVAGLSALVLLVNPNDFRDYMVKQVAARSGYQLQLDGPLRWHVWPQLSILSGRMSLTAQGASQPLVRADNMRLDVALLPLLSHQLSVKQVMLKGAVIQLTPQTEAVRSEDAPVAPRDNTLPDLSDDRGWSFDISSLKVADSVLVFQHEDDEQVTIRNIRLQMEQDPQHRGSFEFSGRVNRDQRDLTISLNGTVDASDYPHDLTAAIEQINWQLQGADLPKQGIQGQGSFQAQWQESHKRLSFNQISLTANDSTLSGQAQVTLTEKPEWQLRLQFPQLNLDNLIPLNETANGENGAAQQGQSQSTLPRPVISSRIDEPAYQGLQGFTADILLQASNVRWRGMNFTDVATQMTNKSGLLEITQLQGKLNGGQVSLPGTLDATSINPRINFQPRLENVEIGTILKAFNYPISLTGKMSLAGDFSGADIDADAFRHNWQGQAHVEMTDTRMEGMNFQQMIQQAVERNGGDVKAAENFDNVTRLDRFTTDLTLKDGVVTLNDMQGQSPVLALTGEGMLNLADQTCDTQFDIRVVGGWNGESKLIDFLKETPVPLRVYGNWQQLNYSLQVDQLLRKHLQDEAKRRLNDWAERNKDSRNGKDVKKLLEKM	–	6.45 ± 0.47	6.24 ± 0.085	6.43 ± 0.59	3.54 ± 0.42	6.18 ± 0.13	11.4 ± 0.47	6.231 ± 0.012	13 ± 0.012	6.266 ± 0.044	11.5 ± 0.13	6.52 ± 0.57
MRTISYSEARQNLSATMMKAVEDHAPILITRQNGEACVLMSLEEYNSLEETAYLLRSPANARRLMDSIDSLKSGKGTEKDIIE	2 ± 0.78	2.66 ± 0.31	–	3.15	> 4	1.57 ± 0.23	2.2 ± 1.2	1.8	2.86 ± 0.17	1.67	3.61 ± 0.31	2.74
MRTSQYLLSTLKETPADAEVISHQLMLRAGMIRKLASGLYTWLPTGVRVLKKVENIVREEMNNAGAIEVSMPVVQPADLWQESGRWEQYGPELLRFVDRGERPFVLGPTHEEVITDLIRNELSSYKQLPLNFYQIQTKFRDEVRPRFGVMRSREFLMKDAYSFHTSQESLQETYDAMYAAYSKIFSRMGLDFRAVQADTGSIGGSASHEFQVLAQSGEDDVVFSDTSDYAANIELAEAIAPKEPRAAATQEMTLVDTPNAKTIAELVEQFNLPIEKTVKTLLVKAVEGSSFPQVALLVRGDHELNEVKAEKLPQVASPLTFATEEEIRAVVKAGPGSLGPVNMPIPVVIDRTVAAMSDFAAGANIDGKHYFGINWDRDVATPEVADIRNVVAGDPSPDGQGRLLIKRGIEVGHIFQLGTKYSEALKASVQGEDGRNQILTMGCYGIGVTRVVAAAIEQNYDERGIVWPDAIAPFQVAILPMNMHKSFRVQELAEKLYSELRAQGIEVLLDDRKERPGVMFADMELIGIPHTIVLGDRNLDNDDIEYKYRRNGEKQLIKTGDIVEYLVKQIKG	5.61 ± 0.85	5.37 ± 0.21	6.14 ± 0.13	5.24 ± 0.2	3.1 ± 0.061	6.12 ± 0.33	10.9 ± 0.57	5.4 ± 0.19	10.6 ± 0.72	6.14 ± 0.17	12.2 ± 1.2	5.92 ± 0.2
